Test results from article PMC6011931, “Substrate scope of a dehydrogenase from Sphingomonas species A1 and its potential application in the synthesis of rare sugars and sugar derivatives” (Microbial Biotechnology, 2018).

Assays:
Assay in all cases: purified protein
Details in all cases: oxidation, 1 mM NAD+, 50 mM ammonium bicarbonate pH 7.9, 25 °C
[1] = substrate: O=C(O)[C@@H](O)[C@@H](O)[C@H](O)CO; assay type: biochemical, Sphingomonas sp. A1
[2] = substrate: O=C(O)[C@@H](O)[C@@H](O)[C@@H](O)[C@H](O)CO; assay type: biochemical, Sphingomonas sp. A1
[3] = substrate: O=C(O)[C@H](O)[C@@H](O)[C@@H](O)[C@H](O)CO; assay type: biochemical, Sphingomonas sp. A1
[4] = substrate: O=C(O)C(=O)C[C@H](O)[C@H](O)CO; assay type: biochemical, Sphingomonas sp. A1
[5] = substrate: OCC(O)CO; assay type: biochemical, Sphingomonas sp. A1
[6] = substrate: O=C(O)[C@@H](O)[C@H](O)[C@H](O)CO; assay type: biochemical, Sphingomonas sp. A1
[7] = substrate: O=C(O)[C@H](O)[C@H](O)[C@H](O)CO; assay type: biochemical, Sphingomonas sp. A1
[8] = substrate: O=C(O)[C@H](O)[C@@H](O)[C@H](O)CO; assay type: biochemical, Sphingomonas sp. A1
[9] = substrate: O=C(O)[C@@H](O)[C@H](O)[C@H](O)[C@H](O)CO
[10] = substrate: O=C(O)[C@H](O)[C@@H](O)[C@H](O)[C@H](O)CO
[11] = substrate: O=C(O)[C@H](O)[C@H](O)[C@H](O)[C@H](O)CO
[12] = substrate: O=C(O)[C@@H](O)[C@@H](O)[C@H](O)[C@H](O)CO

B1: SpsADH (Sphingomonas sp. A1) (protein)
chain: MFSDLKGKRILITGSTEGIGMATAIELARYGAVVGLNSHVDPADPALLLGKLREAGGDGAFFRADITKTAECQRLVSAFVERFDGIDVLINNAGGLAGRSNLENIDDAFYDRVMDLNGRSVLMMTKFAIPHLRASAKASGTTSAVISTGSIAAREGGGIGAGVYAASKAWLHDIHRNWVKEFTKDSIRFNIVAPGTVDTAFHADKSDELKTRIANSIPMGRFGTVQELAPAYVFFASHAASGYITGQILDVNGGQICP
notes: full length (258 residues), codon-optimised synthetic gene, N-terminal His6-tag kept (pET-28a), E. coli BL21(DE3), 29 500 Da; NAD+-dependent isoenzyme (printed locus SPH3227 may belong to the NADP+-dependent isoenzyme)
[1]
  Km: 27 ± 2 mM
  Vmax: 0.0086 µmol/min/mg
  kcat: 0.0042 ± 0.0001 s⁻¹
  kcat/Km: 0.16 ± 0.02 M⁻¹ s⁻¹
[2]
  Km: 6 ± 1 mM
  Vmax: 0.042 µmol/min/mg
  kcat: 0.021 ± 0.001 s⁻¹
  kcat/Km: 3.4 ± 0.9 M⁻¹ s⁻¹
[3]
  Km: 50 ± 5 mM
  Vmax: 0.016 µmol/min/mg
  kcat: 0.0079 ± 0.0003 s⁻¹
  kcat/Km: 0.16 ± 0.02 M⁻¹ s⁻¹
[4]
  Km: 13 ± 3 mM
  Vmax: 2.8 µmol/min/mg
  kcat: 1.4 ± 0.08 s⁻¹
  kcat/Km: 100 ± 30 M⁻¹ s⁻¹
[5]
  Km: 100 ± 10 mM
  Vmax: 0.011 µmol/min/mg
[6]
  Km: 27 ± 3 mM
  Vmax: 0.01 µmol/min/mg
  kcat: 0.0048 ± 0.0001 s⁻¹
  kcat/Km: 0.18 ± 0.02 M⁻¹ s⁻¹
[7]
  Km: 16 ± 1 mM
  Vmax: 0.01 µmol/min/mg
  kcat: 0.0052 ± 0.0001 s⁻¹
  kcat/Km: 0.33 ± 0.03 M⁻¹ s⁻¹
[8]
  Km: 24 ± 2 mM
  Vmax: 0.066 µmol/min/mg
  kcat: 0.032 ± 0.002 s⁻¹
  kcat/Km: 1.4 ± 0.2 M⁻¹ s⁻¹
[9]
  Km: 24 ± 4 mM
  Vmax: 0.39 µmol/min/mg
  kcat: 0.19 s⁻¹
  kcat/Km: 8 M⁻¹ s⁻¹
[10]
  Km: 12 ± 1 mM
  Vmax: 2 µmol/min/mg
  kcat: 0.98 s⁻¹
  kcat/Km: 82 M⁻¹ s⁻¹
[11]
  Km: 16 ± 2 mM
  Vmax: 0.36 µmol/min/mg
  kcat: 0.18 s⁻¹
  kcat/Km: 11 M⁻¹ s⁻¹
[12]
  Km: 14 ± 1 mM
  Vmax: 1.1 µmol/min/mg
  kcat: 0.53 s⁻¹
  kcat/Km: 38 M⁻¹ s⁻¹
